One substance from article doi:10.1101/2024.12.16.628611 can be followed below.

The assay concerns the target His6-BacA_(F134R), purified (Asticcacaulis biprosthecum). The assay can be described thus: SEC; 500 μl of purified protein from the polymerization assay (Buffer C) on Superdex 200 Increase 10/300 GL, calibrated with standard proteins. For orientation: In gel filtration, larger molecules generally elute earlier.

Consider “His6-BacA_(F134R), purified (natural protein)”, for which the stoichiometry N is 2.

As usually defined, the stoichiometry N is a count of units in the complex or per binding partner.
